According to the DeepSol protein solubility set:

Experiment: soluble on expression in E. coli; label from the status in PepcDB or PDB records

Sequence | soluble on expression in E. coli
MSPDSCPLVKNILLLDSEGKRVAVKYYSDDWPTNAAKLSFEKYVFSKTSKTNARTEAEITLLDSNIIVYKFAQDLHFFVTGGENENELILASVLQGFFDAVALLLRSNVEKMEALENLDLIFLCLDEMVDQGVVLETDPNVIAGKVAMQSTEASGSLSEQTLTQALATAREHLARSLLT | soluble
AIAAEMKTYSHRTMPSACTLVMCSSVESGLPGRDGRDGREGPRGEKGDPGLPGAAGQAGMPGQAGPVGPKGDNGSVGEPGPKGDTGPS | soluble
MGSDKIHHHHHHSQERTLFPTEKTDRVPLSVFTSFKADVTTRATAQPLPEGSSIGVFLIADANYTPQSNVKYTCQPDDEWTSETSVWVGGARAGLCAYYPFGKVTFSADIQTQTTLKNQAYTEDADWWYAKDNAAVTVTNLSPEIEFLLEKPYSQLSLEMIRNGRYPLQCKITNVRIELENGESMVDTGTFDIKDGSLQNTTDVTSYSYPTSGPMHDTGLGVGEAARDTTCNYLFVPQILASGLKLTLTIDEREFSVIVPQADLGELIAGKRHVVRLDIRGGIPINIVEVTTKEWQSTSLDGGDATTIKDTTEIIIDGGKVGTEDWASDPTENGSGAL | not soluble
MPKLTIEGAGTFDVKEGTKLVLAIEDSGVNILHRCGGNARCTTCRVEILAGDFCEASANEKHAMTEKGIEDHLRLSCQMRVHKDIVVRPVLTVENSGLDAGPRPAE | not soluble
MSLKFIEKMLPEESPIDLLINLSRRGEAAVVLLKDAIEDYFTGKFGEGHLNRVISLERESDEIKSKLKKMYLKMKYTYFEKDDFLYIVHKADEILDVVRDIVIMLDMNRVEDVPENIKELFAELVENVLDTIRETTEAIEQLRTLAESGFSPFEKEKEEREIFDVSMEEREVDTISRNLGKKLYSLKNSMNPVDLIFLNKVARLISKIADQGKDITKRINSILREGHHHHHH | soluble
MGSDKIHHHHHHMKKTERINDMLIFLNNKRYFNLKDLMVRYDISKSTALRDIQSLEEIGVPIYSELGRNGSYKIIENSVLSPIYFSVDEMYALYFSILTLNGYKTKPFNIESIALENKFKHVLPDNVRKNIAIMERTLSFEVTNHSNFSPFLKEILQGIFAERVYHLTYLKKDVEKALIAQFIRIESKFGQWYAKIFNFETNNVQIIRCDKILSIVETSNTKPKNLEELLNYLATFHRKPDAIDFIVIVNQRGKDIFDKENYPSMRIQKENEHYIITGYFNKQEVDLSRTIF | not soluble
MGHHHHHHSHMSVMFDPDTAIYPFPPKPTPLSIDEKAYYREKIKRLLKERNAVMVAHYYTDPEIQQLAEETGGCISDSLEMARFGAKHPASTLLVAGVRFMGETAKILSPEKTILMPTLQAECSLDLGCPVEEFNAFCDAHPDRTVVVYANTSAAVKARADWVVTSSIAVELIDHLDSLGEKIIWAPDKHLGRYVQKQTGGDILCWQGACIVHDEFKTQALTRLQEEYPDAAILVHPESPQAIVDMADAVGSTSQLIAAAKTLPHQRLIVATDRGIFYKMQQAVPDKELLEAPTAGEGATCRSCAHCPWMAMNGLQAIAEALEQEGSNHEVHVDERLRERALVPLNRMLDFAATLRG | soluble
MTTTDKQLLYVRTEMTIPGVGTSIHIAELEPTSTTHCTLHRILELDPSNTIRGAAHGNAVAGMAAAPERTVPHPNSYANFPDITATHLLQEEFEVLWAEAVAKFSELR | not soluble
MAHHHHHHMTQQRGKKAAPSKAAVANASASAPDPPPFFSMGPATFTDAIVITKVISVVLPLRHLRDRNILHTTLLKKLLHRPYEASAEDLAQQQLSQQETDDGGKHDCGAHSALDNLAAPTSSSSSTPYVIVHIKSAEIHADTARQVNPRGDVQVNVMVTLVAARLQHGICAGVSEASPFTSCMQVRVPTVAVSAAVAARGSTDDAATLLLGDALEAGADNVSQEGVKDEKAEPSGGDTALDASVSATTTAAAAKRSCCTGIPADQQLRVTARCLEDEPIVPGQAVLLISEPAAMRCMGIRPPRAAPGSFYLTETTQPSAQFSSGEAEGGPEARPKKRARKSRASAGGTGGATPARRIVSIECAIPKREEDGEGGAAAGPRKGPRKRPHT | not soluble
KKRIQTEHCSYNRRRDYPLFKFIEYVLYWGHHYTVSISEKVQEELVKFMPRYQHKYRVVHNGVDLNRFPMTAKQAHDISEKATINIGMVGRLHEHKDHETLIHAIAKLPECYHLHLAGDGDRKASLQRLAQSLNVSPRVHFHGVVSDIPRFLSDMDIYVQSSHVE | not soluble
MKIVIAPDSFKESLTAQQVAEAIKRGFQQSIADVECLLCPVGDGGEGTVDAIRHSLDLEEKCLQVTGSFGQKEVMRYFQKEQLALFEVADLVGLGKIPLEKRNPLQIQTRGIGELIRHLISQEIKEIYIGVGGTASNDGGIGIAAGLGYQFYDEDGNALPACGQSLLNLASVSTENRYKIPEDVHIRILADVVSPLCGHQGATYTFGKQKGLDSTMFEVVDQAIQDFYEKVSPATLKLKGAGAGGGIAGGLCAFAQASIVSGIDTCLDLIDFDKKVSDVDLVIVGEGRLDRQSLAGKAPIGVAKRTPVGVPVVAICGSLVEDLPSLPFENIQAAFSILEKSEPLEDSLKNASLYLEHTASNIGHLLNMPKI | soluble
MEINTIIGNNLKKIRQEKKLTLDELAGITGVSKGMLSQIEKGTTNPTINTIWKISNGLNVPYTYLLEDDYVKENPVVKKTETVTQHSEDHSYRVFNYYSDNQERNFELFQFELDPGKKYQAVGHSKRSTEYVMVIQGALALEVGGQRYLLPKDAAMYFDANQVHTYINDGTEKVQAVVINYYT | not soluble
MARTDIRPIVKLRSTAGTGYTYTTRKNRRNDPDRLILRKYDPILRRHVDFREER | soluble
MGSDKIHHHHHHLQVSEMEMLITLSEELNMRRAAERLFVSQPALSQRLVAIERRWATKLFIRSSRGLSITPQGEKVIGLAKEMNRKELELKSELTAEEGAVYGTLRIAVASIMGQYWLPRVLKRFVERYPHVRVQLVTGWSSEMMRHMLEEHFHIGIIRGNPDWKGVKERLFSDPLYLVDSELTSLEQLRKTERPFIQFKSDSTYYQEILEWWQDRFSSPPARTLVVDQIETCKQMALHGIGFAILPESTIHEASEVMQIPLKTSSGKILKRDTWILSTESMLELKQVQAFWDIVKEEGGSQSDGIRN | not soluble
MPEGPEVALTADILEKYFKGKTLEYIDFISGRYSKSEPEGYDDFIANLPLKVSNVDTKGKFLWFELFDPNDKSNKWYIWNTFGLTGMWSLFEAKYTRAVLSFDNELMAYFSDMRNFGTFKFSNSEKELKRKLNELGPDFLKNDDIDISKIKKYKQPIVALLMDQKKIGSGLGNYLVAEILYRAKIDPHKLGSNLTDQEIENLWYWIKYETKLAYDSNHIGYMVNLENESSKIGRKNYHPNIHPTEKEFDFLVYRKKKDPNGNKVIADKIIGSGKNKRTTYWAPAIQKLEHHHHHH | soluble
MRCMSDDHTHVQEFFEARAADWDSRFPDDGPAHAAAVAELGLREGDRVLDAGCGTGRALPSLRAAVGSSGVVVGVDLTPAMLAAAARAGRGRDGHLLLADVTRLPLGTESLDAVFAAGLIAHLPEPAENLRELARVVRAGGTLALFHPIGRAALAARQGRQITPDDLRAEANLGPLLAGSGWRMTSYVDEDARFLALAVRVKLEHHHHHH | not soluble
MNKIFIYAGVRNHNSKTLEYTKRLSSIISSRNNVDISFRTPFNSELEISNSDSEELFKKGIDRQSNADDGGVIKKELLESDIIIISSPVYLQNVSVDTKNFIERIGGWSHLFRLAGKFVVTLDVAESNGSDNVSEYLRDIFSYMGGQILHQVSITNSLKDIAEAQLMEATYKIEDVLEGKIKYKTTDYQERAYQTLKLILENYDSEHFEKMYWEKKRLFEANSLEEWYYVENIKLEHHHHHH | soluble
MVKKEFQLTHIFKNVSKLKVGKFAWTPMKEHFNVSWQIAITRTHFRNEEKMEIQVGCQKLTKDDVPAGVEGEFTIKLTNSSGISTSKSSRLKLVKNGGLGFLKIVWKVMQDEYLIDDSIIIEATVKITKMTGISKKPLKCFDQSKEKFSDVILAVGDQKFFVLRKFLASHSTFFESRFLGNFDEADKSEVTLRDIDSADFQNLLEVLYGEPAIDDDTVDGILHLAHMYDIPLPIRKCEEFLIEVSEKSMKDQLVLAKQYQLEKLKVKKKT | not soluble
MGVMNTGETLDEKAIVASAEKALSDIAAIRTEVSKVIFGQEKVVQNTLLAILSGGHALLVGVPGLAKTKLVTTLGTVLGLDANRIQFTPDLMPSDILGSEVMDQDENGRRSFRFIKGPIFGQLLMADEINRASPRTQSALLQAMQEYHITMAGQTYELPKPFHVLATQNPLEQEGTYPLPEAQLDRFLLQVDVDYPELAAERQILLDTTGTASGEARPVIGAERLMEIQALIRQMPVSDKVVDAILSLVRSARPGHGNKLTDKNVVWGPGPRAGQSLMLTARARALYEGRLAPSLDDVHALAEPVLEHRMALTFAARAEGMSVRDVIAALVEQAKN | not soluble
MRNLIISAALVAASLFGMSAQAAEPIESGKQYVELTSAVPVAVPGKIEVIELFWYGCPHCYAFEPTINPWVEKLPSDVNFVRIPAMFGGPWDAHGQLFITLDTMGVEHKVHAAVFEAIQKGGKRLTDKNDMADFVATQGVNKDDFLKTFDSFAVKGKIAQYKELAKKYEVTGVPTMIVNGKYRFDLGSAGGPEKTLQVADQLIDKERAAAKAAK | not soluble
MALLWQLARNAEGDDPTNLESALIGKPVPKFRLESLDNPGQFYQADVLTQGKPVLLNVWATWCPTCRAEHQYLNQLSAQGIRVVGMNYKDDRQKAISWLKELGNPYALSLFDGDGMLGLDLGVYGAPETFLIDGNGIIRYRHAGDLNPRVWEEEIKPLWEKYSKEAAQ | soluble
MGSDKIHHHHHHMNTPFMLHQGTSPVILAFPHTGTEVPPAIWDRLDDNGRIFADTDWHIHTLYAGLLENATTVRATFHRYVIDANRDPAGVSLYPGQNTTGLVPETDFDGKPIWKTGAEPNEADIAHRLETFHAPYHAALAAEIERVKSIHGIAILYDCHSIRSHIPFLFEGKLPDFNIGTDMGKTCDPAIEKIAVEVTAAAQGYDSILNGRFKGGWTTRHYGKPQTGVHAIQMELAQSTHLQNEHPPFAYDTGKAERLRTHLKTILTRMEKFALDTK | not soluble
STTEIGWWKLTFLRKKKSTPKVLYEIPDTYAQTEGDAEPPRPDAGGPNSDFNTRLEKIVDKSTKGKHVKVSNSGRFKEKKKVRATLAENPNLFDDHEEGRSSK | soluble
MTQISERLLVQAHLDAKQPNPLTAEQEAEYRAAIAAELKAQNAVLVAHYYCDPVIQALAEETGGCVSDSLEMARFGKNHPAETVIVAGVRFMGETAKILTPEKRVLMPTLEATCSLDLGCPVEEFSAFCDQHPERTVVVYANTSAAVKARADWVVTSSCALEIVESLMDNGETIIWGPDQHLGRYIQKQTGADMLLWDGACIVHEEFKSRQLADMKALYPDAAILVHPESPEAVIELADAVGSTSQLIKAAQTLPNKTFIVATDRGIFYKMQQLCPDKEFVEAPTAGNGAACRSCAHCPWMAMNTLERVLDCLRNGTNEIFVDPALVPKAIKPLNRMLDFTQAARLKLSGNALEHHHHHH | not soluble
MLKELSILTGGDGVGFQSAPEQQSLQPAELKPVNVSINSIDELMLFFESLNYTPENFHGGNKSVPRITFDAVGEGWRSVSDQLPVKQKKMVFFRLMTPLVLLANEKVLQERQQVMSAPLDDAELIALAVKYKVISNPTQPLLASHRQALLERVDILPPSLVLAQAAKESGWGTSRFTLEGNALFGQWDFNGNGMEPKQKRQGMGRYGLARFETPLASVEGYLLNLNTHSAYYKMRQLRAQSRHANQMITGTALAGTLDRYSERGHAYVEMIRKMIRTNKLYLADEAYLNDDMPLHLLTRTN | soluble
